The record followed here is the supplement of paper PMC7877785.

± gives the uncertainty stated by the source.

This data set in a line: self-splicing fitness, log relative to wild type (ln ratio); higher = more splicing; Tetrahymena group I intron in knt gene, E. coli kanamycin selection, DiMSum; sequences stand for … in CUCUCU…GGAGGGAAAAGUUAUCAGGCAUGCACCUGGUAGCUAGUCUUUAAACCAAUAGAUUGCAUCGGUUUAAAAGGCAAGACCGUCAAAUUGCGGGAAAGGGGUCAACAGCCGUUCAGUACCAAGUCUCAGGGGAAACUUUGAGAUGGCCUUGCAAAGGGUAUGGUAAUAAGCUGACGGACAUGGUCCUAACCACGCAGCCAAGUCCUAAGUCAACAGAUCUUCUGUUGAUAUGGAUGCAGUUCACAGACUAAAUGUCGGUCGGGGAAGAUGUAUUCUUCUCAUAAGAUAUAGUCGGACCUCUCCUUAAUGGGAGCUAGCGGAUGAAGUGAUGCAACACUGGAGCCGCUGGGAACUAAUUUGUAUGCGAAAGUAUAUUGAUUAGUUUUGGAGUACUCGUGGUCG
Put shortly:
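The eight P1ex-region nucleotides of an intron in the knt kanamycin-resistance gene on pET-22b(+) were all randomised and the library put into E. coli BL21(DE3). Six replicate transformations were grown overnight at 37°C or 30°C on LB agar with or without 25 μg/mL kanamycin, together with 100 μg/mL carbenicillin, 50 μM IPTG and 0.2% rhamnose. Colonies were pooled and amplicon-sequenced on an Illumina HiSeq 2500. Fitness from DiMSum is the error-weighted combination of wild-type-normalised replicate fold changes, kanamycin over none.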

Take GGCAAGCAAUAUUACGUACG: the “self-splicing fitness (ln)” value was -0.191 ± 0.058 (30 °C) and 0.428 ± 0.075 (37 °C). Taken in the same sequence, the figures for CAGAAGCAAUAUUACGUACU were -1.83 ± 0.13 and -1.22 ± 0.12. Consider UCGGAGCAAUAUUACGGAAC, for which the “self-splicing fitness (ln)” value (30 °C) was -3.36 ± 0.38.

Consider UCAUAGCAAUAUUACGAGUU, for which the “self-splicing fitness (ln)” value (30 °C) was -2.66 ± 0.34 and the “self-splicing fitness (ln)” value (37 °C) was -1.56 ± 0.36. Take GAAUAGCAAUAUUACGCGGG: the “self-splicing fitness (ln)” value (37 °C) is -0.0263 ± 0.25.

Consider AUAUAGCAAUAUUACGUGAA, for which the “self-splicing fitness (ln)” value was -1.57 ± 0.28 (30 °C) and -0.717 ± 0.33 (37 °C). On the same counts, the results for AUCUAGCAAUAUUACGUUUU are -2.93 ± 0.11 and -1.93 ± 0.12.

On to AAGCAGCAAUAUUACGUGAA, for which the “self-splicing fitness (ln)” value runs as follows: (30 °C) -1.35 ± 0.067; (37 °C) -1.05 ± 0.077. On the same counts, the results for GAUUAGCAAUAUUACGGCAU are -0.835 ± 0.11 and 0.24 ± 0.12.

On to UGCCAGCAAUAUUACGACGU, for which the “self-splicing fitness (ln)” value (30 °C) is -1.75 ± 0.14 and the “self-splicing fitness (ln)” value (37 °C) was -1.26 ± 0.14.

In the case of UUUGAGCAAUAUUACGUCAG, the “self-splicing fitness (ln)” value is, setting by setting: (30 °C) -3.43 ± 0.2; (37 °C) -1.46 ± 0.27. On the same counts, the results for ACUUAGCAAUAUUACGUGCG are -1.29 ± 0.1 and 0.152 ± 0.15.

Regarding CUUCAGCAAUAUUACGCUCC, the “self-splicing fitness (ln)” value (30 °C) is -2.61 ± 0.26. As for AUAGAGCAAUAUUACGUUUG, the “self-splicing fitness (ln)” value is -1.43 ± 0.11 (30 °C) and -2 ± 0.21 (37 °C). Taken in the same sequence, the figures for UAGUAGCAAUAUUACGACUG were 0.526 ± 0.14 and -0.333 ± 0.17. Regarding UUCUAGCAAUAUUACGUGCC, the “self-splicing fitness (ln)” value (30 °C) was -3.06 ± 0.36.

UUAGAGCAAUAUUACGCUCU: the “self-splicing fitness (ln)” value reads like this: (30 °C) -3.64 ± 0.47; (37 °C) -1.85 ± 0.3. On the same counts, the results for UUUCAGCAAUAUUACGAAUC are -1.94 ± 0.18 and -1.31 ± 0.24. Taken in the same sequence, the figures for GACGAGCAAUAUUACGACUG were -2.47 ± 0.21 and -0.443 ± 0.25. As for AACUAGCAAUAUUACGUUGA, the “self-splicing fitness (ln)” value is -1.52 ± 0.11 (30 °C) and -1.04 ± 0.12 (37 °C). Turning to UGAAAGCAAUAUUACGACCA, the “self-splicing fitness (ln)” value is -0.558 ± 0.11 (30 °C) and 0.362 ± 0.14 (37 °C). Taken in the same sequence, the figures for UGUGAGCAAUAUUACGCGAG were -2.69 ± 0.22 and -1.63 ± 0.23. Taken in the same sequence, the figures for AGAUAGCAAUAUUACGACUA were -1.03 ± 0.14 and -0.165 ± 0.13.

On to GCGGAGCAAUAUUACGCGCU, for which, under “30 °C”, the “self-splicing fitness (ln)” value was -1.88 ± 0.4. Turning to UGGAAGCAAUAUUACGAUCA, the “self-splicing fitness (ln)” value (30 °C) is -0.348 ± 0.093 and the “self-splicing fitness (ln)” value (37 °C) turned out to be 0.181 ± 0.12. For the sequence CUGUAGCAAUAUUACGAACU, the “self-splicing fitness (ln)” value (30 °C) is -2.78 ± 0.26. Take AUAUAGCAAUAUUACGAGAA: the “self-splicing fitness (ln)” value is -1.72 ± 0.34 (30 °C) and -0.73 ± 0.36 (37 °C). In the case of GAGCAGCAAUAUUACGUACG, the “self-splicing fitness (ln)” value by setting is: (30 °C) -3.24 ± 0.21; (37 °C) -1.38 ± 0.17. On the same counts, the results for ACUAAGCAAUAUUACGGGCC are -2.88 ± 0.2 and -1.73 ± 0.21. Taken in the same sequence, the figures for GAAUAGCAAUAUUACGCAGU were -2.57 ± 0.15 and -0.857 ± 0.12. On the same counts, the results for GCUGAGCAAUAUUACGUUUG are -2.85 ± 0.17 and -2.76 ± 0.25.

Take GCAUAGCAAUAUUACGUCGU: the “self-splicing fitness (ln)” value by setting is: (30 °C) -3.44 ± 0.17; (37 °C) -1.06 ± 0.13. Taken in the same sequence, the figures for GUUAAGCAAUAUUACGCACU were -0.8 ± 0.22 and -1.17 ± 0.23. Taken in the same sequence, the figures for AUGCAGCAAUAUUACGCACU were -0.148 ± 0.12 and 0.309 ± 0.16. For the sequence UGAAAGCAAUAUUACGAAUA, the “self-splicing fitness (ln)” value is -0.955 ± 0.098 (30 °C) and -0.396 ± 0.12 (37 °C). On the same counts, the results for CGGGAGCAAUAUUACGAAAG are -2.47 ± 0.42 and -2.55 ± 0.42. On the same counts, the results for UUUAAGCAAUAUUACGCAAA are -1.59 ± 0.38 and -0.938 ± 0.28. With GGAUAGCAAUAUUACGGAAG, the “self-splicing fitness (ln)” value is, setting by setting: (30 °C) -3.41 ± 0.26; (37 °C) -2.85 ± 0.24.

Take UUGUAGCAAUAUUACGUGGC: the “self-splicing fitness (ln)” value (37 °C) is -2.15 ± 0.47. AUUUAGCAAUAUUACGGCGU: the “self-splicing fitness (ln)” value was -0.211 ± 0.11 (30 °C) and 0.269 ± 0.13 (37 °C). As to GGGGAGCAAUAUUACGCUAG, the “self-splicing fitness (ln)” value (30 °C) is -2.63 ± 0.27.

CAAAAGCAAUAUUACGUCCA: the “self-splicing fitness (ln)” value is, setting by setting: (30 °C) -1.7 ± 0.18; (37 °C) -2.05 ± 0.16. Taken in the same sequence, the figures for GAAAAGCAAUAUUACGCACC were -0.811 ± 0.28 and -0.377 ± 0.31.

With AAAAAGCAAUAUUACGGCAU, the “self-splicing fitness (ln)” value was 0.0355 ± 0.061 (30 °C) and 0.55 ± 0.081 (37 °C). As to AAAGAGCAAUAUUACGCAGC, for the setting “37 °C”, the “self-splicing fitness (ln)” value was -2.77 ± 0.41. In the case of CUCAAGCAAUAUUACGAUGU, the “self-splicing fitness (ln)” value (30 °C) was -2.6 ± 0.11 and the “self-splicing fitness (ln)” value (37 °C) is -1.21 ± 0.13. Taken in the same sequence, the figures for UCUCAGCAAUAUUACGCUGA were -2.7 ± 0.25 and -3.19 ± 0.4.

With GCUAAGCAAUAUUACGGAGA, the “self-splicing fitness (ln)” value reads like this: (30 °C) -3.1 ± 0.21; (37 °C) -2.49 ± 0.23. Taken in the same sequence, the figures for ACGCAGCAAUAUUACGCUGA were -0.604 ± 0.095 and -0.835 ± 0.11.

Turning to UACGAGCAAUAUUACGCUUU, the “self-splicing fitness (ln)” value is, setting by setting: (30 °C) -4.61 ± 0.42; (37 °C) -2.4 ± 0.22. Regarding UGUCAGCAAUAUUACGGGGG, the “self-splicing fitness (ln)” value (30 °C) is -2.6 ± 0.14 and the “self-splicing fitness (ln)” value (37 °C) was -1.64 ± 0.15. Taken in the same sequence, the figures for GCCCAGCAAUAUUACGACUA were -1.54 ± 0.1 and -0.508 ± 0.11. Taken in the same sequence, the figures for AUAAAGCAAUAUUACGUGCG were -0.493 ± 0.083 and 0.137 ± 0.1. Taken in the same sequence, the figures for CUUUAGCAAUAUUACGCUGG were -3.05 ± 0.3 and -1.99 ± 0.3. For CUGAAGCAAUAUUACGGGGA, the “self-splicing fitness (ln)” value (30 °C) was -3.06 ± 0.43 and the “self-splicing fitness (ln)” value (37 °C) was -2.36 ± 0.37. Taken in the same sequence, the figures for AUACAGCAAUAUUACGUUCU were 0.212 ± 0.1 and -0.221 ± 0.12. Taken in the same sequence, the figures for GAUUAGCAAUAUUACGAGCG were -1.27 ± 0.12 and 0.534 ± 0.12. In the case of UCAAAGCAAUAUUACGUUAC, the “self-splicing fitness (ln)” value (37 °C) was -2.01 ± 0.12. Turning to CCACAGCAAUAUUACGAGCC, the “self-splicing fitness (ln)” value by setting is: (30 °C) -3.22 ± 0.42; (37 °C) -2.3 ± 0.31.

Take GUUGAGCAAUAUUACGACCU: the “self-splicing fitness (ln)” value is -2.63 ± 0.16 (30 °C) and -1.56 ± 0.17 (37 °C). Consider CGACAGCAAUAUUACGCUCU, for which the “self-splicing fitness (ln)” value (30 °C) was -1.69 ± 0.11 and the “self-splicing fitness (ln)” value (37 °C) is -0.145 ± 0.11. As for GAAGAGCAAUAUUACGGGUG, the “self-splicing fitness (ln)” value runs as follows: (30 °C) -3.28 ± 0.15; (37 °C) -2.01 ± 0.17. On the same counts, the results for AACGAGCAAUAUUACGGGGC are -4.03 ± 0.27 and -3.46 ± 0.35.

As for AAUGAGCAAUAUUACGGGUG, the “self-splicing fitness (ln)” value is -3.73 ± 0.33 (30 °C) and -2.72 ± 0.22 (37 °C). Regarding GUGAAGCAAUAUUACGAAAA, the “self-splicing fitness (ln)” value runs as follows: (30 °C) -1.44 ± 0.14; (37 °C) -0.831 ± 0.18. Taken in the same sequence, the figures for AGGUAGCAAUAUUACGAGAU were -3.178 ± 0.023 and -1.91 ± 0.036. On the same counts, the results for CUGCAGCAAUAUUACGGUGG are -3.9 ± 0.19 and -3.09 ± 0.24. Taken in the same sequence, the figures for GGAAAGCAAUAUUACGAUAC were 0.424 ± 0.17 and -0.511 ± 0.35.

Turning to CUUCAGCAAUAUUACGCAUG, the “self-splicing fitness (ln)” value was -1.48 ± 0.061 (30 °C) and 0.119 ± 0.068 (37 °C). On the same counts, the results for AGAAAGCAAUAUUACGAGGU are -3.59 ± 0.26 and -1.93 ± 0.23. On to ACAAAGCAAUAUUACGCCUA, for which the “self-splicing fitness (ln)” value was -1.61 ± 0.13 (30 °C) and -1.32 ± 0.12 (37 °C).

Take CACUAGCAAUAUUACGCGAC: the “self-splicing fitness (ln)” value (30 °C) was -3.04 ± 0.18 and the “self-splicing fitness (ln)” value (37 °C) was -3.16 ± 0.3. As to UGACAGCAAUAUUACGCGUC, the “self-splicing fitness (ln)” value (30 °C) was -4.67 ± 0.38 and the “self-splicing fitness (ln)” value (37 °C) is -3.62 ± 0.27. On the same counts, the results for CUAGAGCAAUAUUACGGAUC are -3.28 ± 0.15 and -3.06 ± 0.4.

On to CAGAAGCAAUAUUACGGCAU, for which the “self-splicing fitness (ln)” value is -3.35 ± 0.19 (30 °C) and -1.95 ± 0.15 (37 °C). Taken in the same sequence, the figures for UGGUAGCAAUAUUACGCGAA were -0.913 ± 0.11 and -0.833 ± 0.11. As for UUAGAGCAAUAUUACGGAAG, where the note is “30 °C”, the “self-splicing fitness (ln)” value was -2.58 ± 0.33. Take AAGAAGCAAUAUUACGGCAU: the “self-splicing fitness (ln)” value runs as follows: (30 °C) 0.143 ± 0.12; (37 °C) -0.43 ± 0.16.
